Results as given in patent US6030783, “Photo-potentiation of cisplatin chemotherapy” (Massachusetts Institute of Technology).

Key:
[1] = system: HMG1; conditions: [Pt(en)Cl2]; photo-cross-linking efficiency about half that of cis-DDP probe
[2] = molecular target: T1, HMG domain B (of HMG1) (UniProt P63159 P63159:86-165); experiment: EMSA; 10-40 equiv protein; about 50% shifted at 1 uM DNA with 1.5 equiv (Example 5); also photo-cross-links at 302 nm via Lys-6; 10 mM Tris pH 7.5, 10 mM MgCl2, 50 mM KCl; conditions: tags: expressed from pHB1 in E. coli BL21(DE3); label: 5'-32P
T1 sequence (P63159 86-165, one chain of several): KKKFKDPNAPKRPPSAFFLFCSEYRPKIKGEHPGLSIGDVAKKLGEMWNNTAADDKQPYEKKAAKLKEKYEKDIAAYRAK
Procedure: Reaction mixtures (10 µL total volume) were prepared containing 10 mM Tris-HCl, pH 7.5, 4% (v/v) glycerol, 10 mM MgCl2, 50 mM KCl, 1 mM EDTA and 0.05% (v/v) Nonidet P-40. HMG domain B [expressed and purified from pHB1/*Escherichia coli* BL21 (DE3) (Chow et al. (1995) *Biochemistry* 33: 15124–30)] was added, and the solution was incubated for 30 min on ice to allow protein-DNA binding. For binding of the 123- and 82-bp probes to HMG1, 0.2 µg of BSA/mL, 2 µg of competitor chicken erythrocyte DNA, and 300 ng of HMG1 were included in the reaction mixtures. To induce photo-cross-linking of the protein—DNA complexes, the reaction mixtures contained in open microcentrifuge tubes were placed on ice and irradiated from about for 1–2 h at a distance of 4 cm from a transilluminator (Ultra-Violet Products, TM-15) equipped with one of several different lamps, with primary spectral outputs of 254, 302, or 365 nm. The light intensity, 2.6–2.9 J m^-2 s^-1, was measured with a UVX radiometer (Ultra-Violet Products). Following irradiation, the reaction mixtures were combined with 5 µL of gel-loading solution [10 M urea, 1.5 mM EDTA, 0.05% (w/v) bromophenol blue and xylene cyanol]. The DNA was denatured by heating at 90° C. for 4 min and then analyzed by denaturing PAGE. The denaturing 8% polyacrylamide gel was run to determine photo-crosslinking of HMG1 to globally platinated 123-bp probes. […]

[3] = molecular target: T1, HMG domain B (of HMG1); experiment: EMSA; 10-40 equiv protein; conditions: tags: expressed from pHB1 in E. coli BL21(DE3); label: 5'-32P

[Pt(en)Cl2]-modified DNA showed a binding signal (fraction of cis-DDP probe) [1] of 0.5.

B1: 15Pt/15B cisplatin-modified 15-bp duplex (dsDNA)
DNA 1: CCTCTCTGGTTCTTC
DNA 2: GAAGAACCAGAGAGG
modifications: single cis-[Pt(NH3)2{d(GpG)-N7(1),-N7(2)}] intrastrand cross-link at GG
B1: binds [2].

CCTCTCTGGTTCTTC (ssDNA, single cis-[Pt(NH3)2{d(GpG)-N7(1),-N7(2)}] intrastrand cross-link at GG) [15Pt single strand]: no binding [3].
